Molecular target: T1, EnvZ (Escherichia coli K12) (UniProt P0AEJ4)
T1 sequence: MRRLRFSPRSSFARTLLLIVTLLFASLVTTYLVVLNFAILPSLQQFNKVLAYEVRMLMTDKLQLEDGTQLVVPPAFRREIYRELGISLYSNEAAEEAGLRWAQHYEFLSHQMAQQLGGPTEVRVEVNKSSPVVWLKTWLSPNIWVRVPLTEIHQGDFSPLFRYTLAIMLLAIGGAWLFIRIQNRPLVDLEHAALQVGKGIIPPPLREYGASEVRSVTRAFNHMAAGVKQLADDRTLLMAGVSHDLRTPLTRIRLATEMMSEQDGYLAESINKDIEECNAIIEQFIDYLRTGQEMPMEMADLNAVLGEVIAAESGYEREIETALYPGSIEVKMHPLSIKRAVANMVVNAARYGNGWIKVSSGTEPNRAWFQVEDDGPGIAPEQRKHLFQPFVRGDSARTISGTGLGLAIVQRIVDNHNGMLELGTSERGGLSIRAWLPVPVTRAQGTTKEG
Assay: EMSA

“CACGGCGTGTTCTTCCGACAACGTTCTTAAAAAAACTTCTCTCTCCCAGGTCACACCAGTCACAGAGATTGGCTGTGAGTGTCGCTGTGCACAAACCGCGCACAGACTCATACAGTCCCGGCGGTTCCGTTCACAACCCACGCCTCATCCCCACCGACCCAACACACACCCCACAGTCATCGCCACCGTCATCCACAACTCCGAC (double strand) [oriC]” was tested. Which binding did it give?
The binding was “no binding”.
